From PMC6158747

Tested on: CytR DNA-binding domain
Assay: fluorescence anisotropy
Details: Stopped-flow kinetics: 50 mM sodium phosphate, 30 mM NaCl, 1 mM EDTA, pH 6.0, 278 K, 300 nM Alexa-532 udp half-site, equilibrium isotherms at 293 K (buffer not …)

random DNA (Poly-AC DNA)
K half (293 K, similar affinity to udp half-site): 10 µM

PurR binding site (PurFO)
K half (293 K, first of two overlapping titration profiles (K1/2,1)): 0.4 µM

udp half-site (Udp-Half)
K half: 10 µM
